The values that follow come from patent publication US20230257479A1 (Genmab, published 2023).

Substitutions are numbered along the chain they refer to. Names and notes keep the numbering of the source.

The EC50 (read off the curve) is the concentration that produces a half-maximal response. A word on the Kd: it is a measure of binding affinity in units of concentration. What is called koff is the rate constant with which the complex falls apart. One may read the kon as the second-order rate constant of association.

In test [1] the target is T1, human 5T4ECDHis (mature protein of SEQ ID NO: 99) (human, UniProt Q13641 32-355).
T1 construct: ECD of human 5T4 (aa 1-355 of Uniprot Q13641) with C-terminal His tag; residues 1-31 are the signal peptide; also called ECD of human 5T4 with a C-terminal His tag
T1 sequence: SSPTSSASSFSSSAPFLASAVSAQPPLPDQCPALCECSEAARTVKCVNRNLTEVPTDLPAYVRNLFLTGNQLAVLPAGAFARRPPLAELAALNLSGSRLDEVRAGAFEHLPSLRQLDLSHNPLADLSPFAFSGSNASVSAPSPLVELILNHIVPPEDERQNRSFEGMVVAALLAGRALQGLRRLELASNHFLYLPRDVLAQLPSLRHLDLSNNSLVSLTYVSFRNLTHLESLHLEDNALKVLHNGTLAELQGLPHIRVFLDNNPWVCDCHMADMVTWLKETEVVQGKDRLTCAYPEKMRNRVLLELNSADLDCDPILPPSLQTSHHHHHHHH
Nature of the test: BLI cross-block; competitor (immobilised): IgG1-5T4-H8-FEAR.

Test [2] has as its target T1, human 5T4ECDHis (mature protein of SEQ …). The test can be described thus: BLI cross-block; competitor (immobilised): IgG1-5T4-059-FEAR.
Test [3] has the same target. Nature of the test: BLI cross-block; competitor (immobilised): IgG1-5T4-076-FEAR.
The target is the same in test [4]. The test can be described thus: BLI cross-block; competitor (immobilised): IgG1-5T4-085-FEAR.
Test [5] has the same target. Nature of the test: BLI cross-block; competitor (immobilised): IgG1-5T4-106-FEAR.
Test [6] shares this target. Nature of the test: BLI cross-block; competitor (immobilised): IgG1-5T4-127-FEAR.
Test [7] has the same target. Nature of the test: BLI cross-block; competitor (immobilised): IgG1-5T4-207-FEAR.
The target is the same in test [8]. The test can be described thus: BLI cross-block; competitor (immobilised): IgG1-5T4-226-FEAR.
For test [9] the target is unchanged. Nature of the test: BLI cross-block; competitor (immobilised): IgG1-5T4-A1-F405L.
In test [10] the target is T2, full length human 5T4 (SEQ ID NO: 1) on cells (human, UniProt Q13641 32-420).
T2 construct: Uniprot Q13641; residues 1-31 are the signal peptide; Used both for transfected HEK-293 cells and for 5T4-expressing human tumor cell lines
T2 sequence: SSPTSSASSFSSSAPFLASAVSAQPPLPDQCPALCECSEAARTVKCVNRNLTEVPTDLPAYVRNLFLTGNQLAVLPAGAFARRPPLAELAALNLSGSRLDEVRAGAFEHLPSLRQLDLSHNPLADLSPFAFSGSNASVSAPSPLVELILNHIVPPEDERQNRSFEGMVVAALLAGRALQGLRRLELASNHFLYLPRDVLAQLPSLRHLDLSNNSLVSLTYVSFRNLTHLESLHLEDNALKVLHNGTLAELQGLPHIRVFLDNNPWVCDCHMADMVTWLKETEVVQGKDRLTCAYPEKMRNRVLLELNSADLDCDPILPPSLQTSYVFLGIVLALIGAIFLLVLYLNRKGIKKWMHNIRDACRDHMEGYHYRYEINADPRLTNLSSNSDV
The test can be described thus: flow cytometry, MDA-MB-231 cells, FITC secondary [I)A]. On the technique in general: Flow cytometry measures light scatter and fluorescence of single cells or particles in a stream.

The target of test [11] is T1, human 5T4ECDHis (mature protein of SEQ …). Nature of the test: BLI, antibody on anti-human IgG Fc Capture biosensor, antigen in solution.
Test [12] deals with T3, recombinant cynomolgus monkey 5T4 protein (Cusabio; cat. no. CSB-MP024093MOV) (cynomolgus monkey, UniProt Q4R8Y9 35-355).
T3 construct: extracellular domain; Bought protein; also called cynomolgus 5T4; cynomolgus monkey 5T4 extracellular domain
T3 sequence (looked up): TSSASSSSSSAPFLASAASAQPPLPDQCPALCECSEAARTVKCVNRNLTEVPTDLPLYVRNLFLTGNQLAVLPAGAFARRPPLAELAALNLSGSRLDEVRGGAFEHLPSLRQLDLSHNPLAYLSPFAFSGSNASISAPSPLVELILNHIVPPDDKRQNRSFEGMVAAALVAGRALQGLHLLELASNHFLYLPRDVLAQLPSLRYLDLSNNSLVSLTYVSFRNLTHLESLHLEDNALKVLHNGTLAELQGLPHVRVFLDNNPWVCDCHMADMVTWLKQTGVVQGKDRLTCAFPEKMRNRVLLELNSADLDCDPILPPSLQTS
The description is as above.

The target of test [13] is T4, full length chicken 5T4 (SEQ ID NO: 3) on transfected HEK-293 cells (chicken).
T4 construct: Uniprot R4GM46; residues 1-27 are the signal peptide
T4 chain: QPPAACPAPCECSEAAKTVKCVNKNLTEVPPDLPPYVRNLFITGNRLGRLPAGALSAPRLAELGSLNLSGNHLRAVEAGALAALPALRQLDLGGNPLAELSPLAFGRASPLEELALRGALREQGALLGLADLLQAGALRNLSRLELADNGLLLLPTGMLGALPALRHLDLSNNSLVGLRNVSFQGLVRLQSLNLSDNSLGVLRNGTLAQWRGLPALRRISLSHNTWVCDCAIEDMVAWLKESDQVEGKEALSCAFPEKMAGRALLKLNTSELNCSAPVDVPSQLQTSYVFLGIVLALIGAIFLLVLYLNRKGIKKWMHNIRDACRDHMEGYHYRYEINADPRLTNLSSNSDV
Nature of the test: flow cytometry, HEK-293 cells transfected with chicken 5T4, PE secondary.

B1: IgG1-5T4-207-FEAR (antibody, V domains shown)
VH: QVQLQQWGAGLLKPSETLSLTCAVYGGSFSGYYWTWIRQPPGKGLEWIGEIDHSESTNYNPSLKSRVTISVDTSKNQFSLKLSSVTAADTAVYYCAGWFGELYHYYYGMDVWGQGTTVTVSS
VL: EIVLTQSPATLSLSPGERATLSCRASQSVSSYLAWYQQKPGQAPRLLIYDASNRATGIPARFSGSGSGTDFTLTISSLEPEDFAVYYCQQRSNWPLTFGGGTKVEIKR
notes: Monospecific, bivalent IgG1 FEAR
For B1, the corrected association response in test [1] is -0.01 nm; in test [2], 0.02 nm; in test [3], 0.05 nm; in [4], 0.08 nm; in test [5] it was -0.03 nm; in [6], 0.16 nm. In addition, the corrected association response in test [7] is -0.02 nm; in test [8], -0.02 nm; in [9], 0.86 nm. The “EC50 (read off the curve)” value in test [10] is roughly 0.03 µg/mL. Further, the values for the Kd in test [11] and in [12] were 2.6 nM and 6.3 nM, respectively. Also, the koff is 0.00068 s⁻¹ in [11] and 0.00087 s⁻¹ in test [12]. Also, the kon in [11] turned out to be 270000 M⁻¹ s⁻¹; in [12] it was 140000 M⁻¹ s⁻¹. Moreover, the binding result in [13] is “binds”.

B2: IgG1-5T4-226-FEAR (antibody, V domains shown)
VH: B1 VH with T35S, E55G, G97A, Y103W, H104D
VL: EIVLTQSPATLSLSPGERATLSCRASQSVSSFLAWYQQKPGQAPRLLIYDASNRATGIPARFSGSGSGTDFTLTISSLEPEDFAVYYCQQRSNWPLTFGQGTRLEIK
notes: Monospecific, bivalent human IgG1 kappa with L234F, L235E, D265A, K409R (FEAR); also called IgG1-5T4-226-FEAR-FITC
B2: the corrected association response in test [1] is -0.01 nm; in test [2], 0.01 nm; in [3], 0.05 nm; in [4] it was 0.07 nm; in test [5] it was -0.02 nm; in test [6], 0.16 nm. The corrected association response in [7] was -0.02 nm; in test [8], -0.02 nm; in test [9], 0.86 nm. For the same molecule, the Kd came out at 2.5 nM in [11] and 11 nM in test [12]. The koff in [11] was 0.00081 s⁻¹; in [12], 0.0015 s⁻¹. Further, the values for the kon in test [11] and in test [12] were 330000 M⁻¹ s⁻¹ and 140000 M⁻¹ s⁻¹, respectively. Besides, the binding result in test [13] is “binds”.
